Reference: patent US20070298997A1, “Compounds useful in treating diabetic microvascular complications and age-related macular degeneration” (priority 2003, published 2007)
Where two headings read alike, the source gives them in different places.

Key:
[1] = system: TGF-β; assay: TGF-β-induced fibronectin secretion in HMC (ELISA); assay type: cell-based, human; details: 5 ng/ml TGF-β, 3 days
Description: FIG. 12 illustrates that kallistatin blocks TGF-β-induced fibronectin over-production in HMC. HMC were treated with 5 ng/ml TGF-β without or with different concentrations of kallistatin for 3 days. Fibronectin secreted into the medium was measured by ELISA (mean±SD, n=3). TGF-β induced significant over-production of fibronectin.
Kallistatin blocks the function of TGF-β, a major pathogenic factor in DN. TGF-β is a major inflammatory and fibrosis mediator. It plays a major role in the development of DN. To explore the role of kallistatin in DN, the effect of kallistatin in blocking TGF-β activity in kidney cells was determined. HMC were treated with 5 ng/ml TGF-β for 3 days without or with different concentrations of kallistatin.

[2] = system: retinal neovascularization; assay type: in vivo, Brown Norway rats; details: for pre-retinal vascular cells: P<0.01
Description: Retinal neovascularization was induced in Brown Norway rats by exposure of newborn rats to hyperoxia as described previously (Gao et al., 2001). Kallistatin was injected intravitreally at P12, and the control eyes received the same volume of PBS. Rats were kept under normoxia for another 5 days, and retinal neovascularization was examined by fluorescein angiography (P17). The control eyes (PBS-injected) developed typical retinal neo-vascularization, including neovascular tufts, microaneurysms, enlarged non-perfusion regions and vascular leakage (FIG. 5a).
Induction of retinal neovascularization and intravitreal injection of kallistatin: Retinal neovascularization was induced as described by Smith et al. (Smith et al., 1994) with some modifications. Briefly, newborn pigmented Brown Norway rats at postnatal day 7 (P7) were exposed to hyperoxia (75% O2) for 5 days and then normoxia. Animals were anesthetized, and kallistatin was injected into the vitreous of the right eye through the pars plana using a glass capillary. The left eye received the same volume of PBS as the control. After injection, the animals were kept in normoxia for another 5 days for further analyses.
Retinal angiography with high molecular weight fluorescein and quantification of neovascularization: Retinal angiography was as described by Smith et al. (Smith et al., 1994). Briefly, rats were anesthetized and perfused with fluorescein via intra-ventricle injection of 50 mg/ml of high molecular weight (2×10^6) fluorescein isothiocyanate-dextran (Sigma, St. Louis, Mo.). The animals were immediately sacrificed, and the eyes were enucleated and fixed in 4% paraformaldehyde for 10 min. The retina was dissected free of the lens and vitreous and incubated in 4% paraformaldehyde for 3 h. The retina was cut and flat-mounted on a gelatin-coated slide. The vasculature was then examined under a fluorescent microscope (Axioplan2 Imaging, Zeiss).
Retinal neovascularization was quantified by counting pre-retinal vascular cells as previously described (Zhang et al., 2001). The average number of pre-retinal vascular nuclei was compared to the PBS control group by Student's t test.

[3] = system: RCEC; assay: Quantitative analysis of apoptosis by Annexin V/PI flow cytometry; assay type: cell-based, bovine; details: 24 h, 40-640 nM
Description: To determine whether kallistatin might induce cell death, RCEC were incubated with different concentrations of kallistatin or 10 μM chochicine for 24 h, and the apoptotic cells were quantified using the Annexin V-flow cytometry method. Phosphatidylserine externalization is a characteristic of cells undergoing apoptosis. The Annexin V-FITC kit allows for fluorescent detection of Annexin V bound to apoptotic cells and quantitative determination by flow cytometry. The Annexin V-FITC kit uses Annexin V conjugated with fluorescein isothiocyante (FITC) to label phosphatidylserine sites on the membrane surface. The kit includes propidium iodide (PI) to label the cellular DNA in necrotic cells where the cell membrane has been totally compromised. This combination allows the differentiation among early apoptotic cells (Annexin V positive, PI negative), necrotic cells (Annexin V positive, PI positive), and viable cells (Annexin V negative, PI negative) which can be located in the lower right, upper right, and lower left quadrants of the cytograms, respectively (FIG. 4a). Because only cells that are Annexin V-positive and PI-negative are truly apoptotic cells, the percentage of this cell population was quantified.
Quantitative analysis of apoptosis by flow cytometry: RCEC were plated at a density of 10^5 cells/well in 6-well plates. […] The cells were subsequently counted by flow cytometry.

[4] = system: Retinal capillary endothelial cells (RCEC); assay: Quantification of viable cells by MTT assay, RCEC; assay type: cell-based, bovine
Description: FIG. 2 illustrates the specific inhibition of endothelial cell proliferation by recombinant kallistatin. RCEC were treated with recombinant kallistatin at concentrations of 5,10, 20, 40, 80 and 160 nM for 72 h. Viable cells were quantified by MTT assay. […] This effect appeared to be kallistatin concentration-dependent, with an apparent IC50 of 50 nM (FIG. 2) which is similar to that of K5, a known angiogenic inhibitor (Zhang et al., 2001).
FIG. 7 illustrates the effects of B1 and B2 kinin receptor antagonists on RCEC. In order to test whether the anti-angiogenic activity of kallistatin is via reducing kinin production by inhibiting kallikrein activity, RCEC were treated with 5 μM des-Arg^9-[Leu^8]-bradykinin, a specific antagonist of the B1 kinin receptor or Hoe-140, a specific B2 kinin receptor antagonist, in the presence or absence of 40 nM kallistatin for 48 h, and viable cells were quantified by MTT assay.
Quantification of viable cells: Cells were plated in 12-well plates in triplicate and cultured in the growth medium until they reached 60-70% of confluency. The culture medium was replaced with a medium containing 1% fetal bovine serum (FBS). Recombinant kallistatin was added to the cover medium to various concentrations and incubated with the cells for 72 h. The viable cells were quantified by the MTT (3-[4,5-dimethylthiazol-2-yl]-2,5-dephenyl tetrazolium bromid, Roche, Mannheim, Germany) assay following a protocol recommended by the manufacturer. The effect of kallistatin on viable cell number was analyzed using Student's t test.

B1: kallistatin: Recombinant His-tagged rat kallistatin (serpin, SEQ ID NO:1) expressed in E. coli and affinity-purified (protein, listed as Homo sapiens)
chain: DGILGRDTLPHEDQGKGRQLHSLTLASINTDFTLSLYKKLALRNPDKNVVFSPLSISAALAILSLGAKDSTMEEILEVLKFNLTEITEEEIHHQGFGHLLQRLSQPEDQAEINTGSALFIDKEQPILSEFQEKTRALYQAEAFVADFKQCNEAKKFINDYVSNQTQGKIAELFSELDERTSMVLVNYLLFKGKWKVPFNPNDTFESEFYLDEKRSVKVPMMKIKDLTTPYIRDEELSCSVLELKYTGNASALFILPDQGKMQQVESSLQPETLKKWKDSLRPRIISELRMPKFSISTDYNLEEVLPELGIRKIFSQQADLSRITGTKNLHVSQVVHKAVLDVDETGTEGAAATAVTAALKSLPQTIPPLNFNRPFMLVITDNNGQSVFFMGKVTNPM
modifications: His tag
[1]
  TGF-β-induced fibronectin secretion: blocked the TGF-β-induced fibronectin secretion in a concentration-dependent manner
[1]; listed as Kallistatin
  TGF-β-induced fibronectin secretion: blocked the TGF-β-induced fibronectin production in a concentration-dependent manner
[2]; OIR rats, 12.5 μg per eye intravitreal
  pre-retinal vascular cells: significantly decreased pre-retinal vascular cells
[2]; OIR rats, 25 μg per eye intravitreal
  pre-retinal vascular cells: significantly decreased pre-retinal vascular cells
[2]; OIR rats, intravitreal injection at P12, examined P17
  retinal vasculature by fluorescein angiography: apparent improvement in retinal vasculature
[2]; rat, in vivo
  retinal vasculature by fluorescein angiography, normal rats: did not result in any apparent difference in retinal vasculature
[3]
  apoptosis (Annexin V-positive, PI-negative cells): increases apoptosis in RCEC in a dose-dependent manner
[4]; 5 nM, 72 h, P<0.05
  viable cells vs control: significantly fewer viable cells than the control cells
[4]; 40 nM, 48 h, P<0.01
  viable cell numbers, % of the control: approximately 50 % of the control
[4]; 72 h, read-out: apparent IC50, viable cells
  IC50: 50 nM
